# Results reported in article PMC7747229 (Nature, 2020).
# Where “and” joins values, the source holds several entries; their conditions need not be identical. Equal values may be shown once.
# B1: KAT1em (KAT1 from Arabidopsis thaliana, amino acids M1-S502) (domain or fragment)
# chain: not shown
# Target: the molecule itself
# Experiment: cryo-EM structure
protein,measurement,value
B1,stoichiometry N,8 and 4
